Laboratory results published in US6426070.

T1: placental ribonuclease inhibitor (RI), P13489
T1 chain: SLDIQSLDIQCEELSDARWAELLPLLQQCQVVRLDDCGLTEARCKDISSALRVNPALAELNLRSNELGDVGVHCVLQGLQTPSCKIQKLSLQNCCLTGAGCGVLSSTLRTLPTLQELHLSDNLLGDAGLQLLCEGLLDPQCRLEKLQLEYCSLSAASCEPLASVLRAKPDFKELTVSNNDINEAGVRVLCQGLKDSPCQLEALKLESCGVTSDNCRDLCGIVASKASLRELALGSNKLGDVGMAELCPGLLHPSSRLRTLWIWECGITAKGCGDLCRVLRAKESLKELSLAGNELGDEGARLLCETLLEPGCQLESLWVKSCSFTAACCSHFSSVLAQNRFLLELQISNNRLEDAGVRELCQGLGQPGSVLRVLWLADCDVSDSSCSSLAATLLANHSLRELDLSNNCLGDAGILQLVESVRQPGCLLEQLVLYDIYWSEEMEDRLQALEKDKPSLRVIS


What was measured:
[1] = biological target: recombinant human eosinophil cationic protein (rhECP), baculovirus-derived, C-terminal FLAG (human) (UniProt P12724); experiment: cell-based or functional assay
[2] = biological target: T1, placental ribonuclease inhibitor (RI), …

Molecule	infectious units/ml RSV-B after 500 nM rhECP + 400U RI (500 nM rhECP alone: 660 +/- 28) (infectious units/ml) [1]	ribonuclease activity (pmol/min) at fixed enzyme (rhECP) and substrate (tRNA) concentrations with increasing concentrations of RI [2]
placental ribonuclease inhibitor (RI) (from UniProt P13489 2-461)	1690	–
recombinant human eosinophil cationic protein (rhECP), baculovirus-derived, C-terminal FLAG (protein) RPPQFTRAQWFAIQHISLNPPRCTIAMRAINNYRWRCKNQNTFLRTTFANVVNVCGNQSIRCPHNRTLNNCHRSRFRVPLLHCDLINPGAQNISNCTYADRPGRRFYVVACDNRDPRDSPRYPVVPVHLDTTIDYKDDDDK	–	These results demonstrate that rhECP is sensitive to the inhibitory effects of RI
